{
  "source": "paper PMC2757917",
  "about": "“Mutations in the DNA-Binding Domain of NR2E3 Affect In Vivo Dimerization and Interaction with CRX” (PLoS ONE, 2009)",
  "biological_target": "the molecule itself",
  "assay": "native gel or EMSA; total protein extracts of transfected HEK293T cells on an 8% PAA-gel under non-denaturing conditions, Western blot with an anti-NR2E3 antibody",
  "data": [
    {"protein": "human NR2E3 wild-type protein (pcDNA3.1/HisC-hNR2E3) (natural protein, NR2E3 (PNR), photoreceptor-specific nuclear receptor, human, SwissProt Q9Y5X4; band of 45 kDa on the denaturing gel; also called PNR; pcDNA-NR2E3-His/C; source: HEK293T, transiently transfected, in lysate) not shown", "values": [
      {"measurement": "stoichiometry N", "value": 2}
    ]}
  ]
}
